In patent US10030233B2, “Modified P450 reductase with N-terminal deletions and endoplasmic reticulum retention tag” (DE MONTFORT UNIVERSITY, priority 2013, dated 2018):

Tests used:
Type in all cases: biochemical
[1] = MTT-based cytochrome P450 reductase assay on yeast microsomes; conditions: relative to hRD = 1; 100 μg yeast microsomes, A610
Text: The enzyme NADPH-cytochrome P450 reductase mediates the transfer of electrons from NADPH to cytochrome P450, other microsomal proteins and cytochrome c. It also catalyses the reduction of many drugs and other compounds such as potassium ferricyanide, 2,6-dichloroindopheonl, 1,1-diphenyl-2-picrylhydrazyl (DPPH), and mitomycin c. Tetrazolium salts are used extensively in cell proliferation and cytotoxicity assays, enzyme assays, histochemical procedures and bacteriological screening. […] The compound 3-(4,5-dimethylthiazol-2-yl)-2,5-diphenyltetrazolium bromide (MTT) is a monotetrazolium salt. The reduction of MTT is one of the most frequently used methods for measuring cell proliferation and cytotoxicity. Reduction of MTT by P450 reductase has been assessed as a method for monitoring yeast produced recombinant P450 reductase activity and the protocol was developed on the procedure published by Yim S-K, et al (Yim S-K., Y. C.-H. Ahn T., Hung H-C and Pan J-G. A continuous Spectrophotometric assay for NADPH-cytochrome P450 reductase activity using 3-(4,5 Dimethylthiazol-2-yl)-2,5-diphenyltetrazolium Bromide. Journal of Biology and Molecular Biology 38: 366-369, 2005). The principal advantage of this substance is that the reduction of MTT can be assayed directly in the reaction medium by a continuous spectrophotometirc method. The electrons released from NADPH by P450 reductase are transferred to MTT, and then the amounts of reduced MTT is assessed spectrophotometrically by measuring the increase in A610 values that is due to the formation of blue formazan. The extinction coefficient of MTT is 11.3 mM^−1 cm^−1. This method offers the advantages of short analysis time with the use of a relatively cheap commercial substrate. The classical assay uses recombinant cytochrome c as a substrate. […]
Disposable cuvettes were used for this experiment. […] The cuvette was quickly placed into the spectrophotometer together with the blank cuvette and its contents (that contained all components as in the other test cuvette but not the microsomes or cell supernatant) and the increase in the values at 610 nm was measured for a time period of 400 seconds. The electrons released from NADPH by recombinant P450 reductase enzyme were transferred to MTT, and the ability to reduce MTT was assessed spectrophotometrically by measuring the increase in A610 values as a result of the formation of blue formazan. The rate of MTT reduction was calculated from the change in A610 values using an extinction coefficient of 11.3 mM^−1 cm^−1 and the formula, ΔA610/min/11.3*0.1 mg/ml=μmole reduced MTT/min/mg of protein.

CYP1A2 = biological target: T1, CYP1A2 (Homo sapiens, UniProt P05177)
T1 construct: A 1563 bp BamHI-XhoI fragment containing the human CYP1A2 gene; made in house; host or cells: Saccharomyces cerevisiae W303B, microsomes
T1 sequence (P05177 1-516): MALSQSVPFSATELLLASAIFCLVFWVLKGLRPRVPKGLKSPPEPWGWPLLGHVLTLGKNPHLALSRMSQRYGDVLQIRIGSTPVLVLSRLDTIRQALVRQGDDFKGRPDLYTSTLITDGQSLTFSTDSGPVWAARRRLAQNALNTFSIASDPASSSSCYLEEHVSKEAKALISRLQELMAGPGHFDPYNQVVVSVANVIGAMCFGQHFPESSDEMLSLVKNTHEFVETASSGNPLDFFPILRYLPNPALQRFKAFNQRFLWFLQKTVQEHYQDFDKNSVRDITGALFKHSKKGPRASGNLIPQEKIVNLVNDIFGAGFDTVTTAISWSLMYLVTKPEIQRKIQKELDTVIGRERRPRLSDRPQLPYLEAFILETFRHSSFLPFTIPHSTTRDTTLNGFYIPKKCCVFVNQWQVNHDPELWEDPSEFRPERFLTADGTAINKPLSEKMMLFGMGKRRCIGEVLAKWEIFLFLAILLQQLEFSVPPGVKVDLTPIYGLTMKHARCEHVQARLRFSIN

CYP2D6 = biological target: T2, CYP2D6 (Homo sapiens, UniProt P10635, V374M)
T2 construct: A 1506 bp BamHI-XbaI fragment containing the human CYP2D6 gene; made in house; host or cells: Saccharomyces cerevisiae W303B, microsomes
T2 sequence (P10635 whole entry V374M, the tested form may be a part): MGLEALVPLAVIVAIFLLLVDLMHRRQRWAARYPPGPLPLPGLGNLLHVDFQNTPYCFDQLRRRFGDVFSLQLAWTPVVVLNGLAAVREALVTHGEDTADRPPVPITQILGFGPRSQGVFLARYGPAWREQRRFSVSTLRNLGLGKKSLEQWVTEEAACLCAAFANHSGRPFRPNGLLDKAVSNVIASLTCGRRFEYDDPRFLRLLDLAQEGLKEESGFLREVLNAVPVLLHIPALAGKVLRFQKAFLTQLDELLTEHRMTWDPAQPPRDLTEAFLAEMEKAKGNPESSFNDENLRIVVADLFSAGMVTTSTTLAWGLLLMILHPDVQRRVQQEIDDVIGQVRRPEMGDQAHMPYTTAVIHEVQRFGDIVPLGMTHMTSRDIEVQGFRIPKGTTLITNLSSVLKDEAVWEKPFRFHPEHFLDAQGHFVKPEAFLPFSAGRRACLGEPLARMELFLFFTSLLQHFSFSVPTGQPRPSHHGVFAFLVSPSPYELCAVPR

B1: ΔN2hRD-HDEL: human P450 reductase lacking the 54-amino acid membrane anchoring region, with C-terminal yeast ER retention signal HDEL (protein)
chain: MTKIQTLTSSVRESSFVEKMKKTGRNIIVFYGSQTGTAEEFANRLSKDAHRYGMRGMSADPEEYDLADLSSLPEIDNALVVFCMATYGEGDPTDNAQDFYDWLQETDVDLSGVKFAVFGLGNKTYEHFNAMGKYVDKRLEQLGAQRIFELGLGDDDGNLEEDFITWREQFWPAVCEHFGVEATGEESSIRQYELVVHTDIDAAKVYMGEMGRLKSYENQKPPFDAKNPFLAAVTTNRKLNQGTERHLMHLELDISDSKIRYESGDHVAVYPANDSALVNQLGKILGADLDVVMSLNNLDEESNKKHPFPCPTSYRTALTYYLDITNPPRTNVLYELAQYASEPSEQELLRKMASSSGEGKELYLSWVVEARRHILAILQDCPSLRPPIDHLCELLPRLQARYYSIASSSKVHPNSVHICAVVVEYETKAGRINKGVATNWLRAKEPAGENGGRALVPMFVRKSQFRLPFKATTPVIMVGPGTGVAPFIGFIQERAWLRQQGKEVGETLLYYGCRRSDEDYLYREELAQFHRDGALTQLNVAFSREQSHKVYVQHLLKQDREHLWKLIEGGAHIYVCGDARNMARDVQNTFYDIVAELGAMEHAQAVDYIKKLMTKGRYSLDVWSHDEL
modifications: delN2hRD-HDEL
notes: human P450 reductase lacking the 54-amino acid membrane anchoring region, with C-terminal yeast ER retention signal HDEL
[1]
  μM of reduced MTT/min/mg of protein (Relative Rates): 3.5 ± 10%
CYP1A2
  pmoles of CYP1A2/mg of total protein (Relative Amounts): 6 ± 10%
CYP2D6
  pmoles of CYP2D6/mg of total protein (Relative Amounts): 6 ± 10%

B2: ΔN1hRD-M: human P450 reductase lacking N-terminal 24 amino acids, with C-terminal 12-amino acid c-myc tag; described in WO 2007/129050; gene SEQ ID NO: 5 (protein)
chain: MTDMILFSLIVGLLTYWFLFRKKKEEVPEFTKIQTLTSSVRESSFVEKMKKTGRNIIVFYGSQTGTAEEFANRLSKDAHRYGMRGMSADPEEYDLADLSSLPEIDNALVVFCMATYGEGDPTDNAQDFYDWLQETDVDLSGVKFAVFGLGNKTYEHFNAMGKYVDKRLEQLGAQRIFELGLGDDDGNLEEDFITWREQFWPAVCEHFGVEATGEESSIRQYELVVHTDIDAAKVYMGEMGRLKSYENQKPPFDAKNPFLAAVTTNRKLNQGTERHLMHLELDISDSKIRYESGDHVAVYPANDSALVNQLGKILGADLDVVMSLNNLDEESNKKHPFPCPTSYRTALTYYLDITNPPRTNVLYELAQYASEPSEQELLRKMASSSGEGKELYLSWVVEARRHILAILQDCPSLRPPIDHLCELLPRLQARYYSIASSSKVHPNSVHICAVVVEYETKAGRINKGVATNWLRAKEPAGENGGRALVPMFVRKSQFRLPFKATTPVIMVGPGTGVAPFIGFIQERAWLRQQGKEVGETLLYYGCRRSDEDYLYREELAQFHRDGALTQLNVAFSREQSHKVYVQHLLKQDREHLWKLIEGGAHIYVCGDARNMARDVQNTFYDIVAELGAMEHAQAVDYIKKLMTKGRYSLDVWSSSEQKLISEEDLNGSRL
modifications: delN1hRD-M
[1]
  μM of reduced MTT/min/mg of protein (Relative Rates): 2.5 ± 10%
CYP1A2
  pmoles of CYP1A2/mg of total protein (Relative Amounts): 4 ± 10%
CYP2D6
  pmoles of CYP2D6/mg of total protein (Relative Amounts): 4 ± 10%

B3: hRD: wild-type human P450 reductase, full length, control (protein, listed as Homo sapiens)
chain: MGDSHVDTSSTVSEAVAEEVSLFSMTDMILFSLIVGLLTYWFLFRKKKEEVPEFTKIQTLTSSVRESSFVEKMKKTGRNIIVFYGSQTGTAEEFANRLSKDAHRYGMRGMSADPEEYDLADLSSLPEIDNALVVFCMATYGEGDPTDNAQDFYDWLQETDVDLSGVKFAVFGLGNKTYEHFNAMGKYVDKRLEQLGAQRIFELGLGDDDGNLEEDFITWREQFWPAVCEHFGVEATGEESSIRQYELVVHTDIDAAKVYMGEMGRLKSYENQKPPFDAKNPFLAAVTTNRKLNQGTERHLMHLELDISDSKIRYESGDHVAVYPANDSALVNQLGKILGADLDVVMSLNNLDEESNKKHPFPCPTSYRTALTYYLDITNPPRTNVLYELAQYASEPSEQELLRKMASSSGEGKELYLSWVVEARRHILAILQDCPSLRPPIDHLCELLPRLQARYYSIASSSKVHPNSVHICAVVVEYETKAGRINKGVATNWLRAKEPAGENGGRALVPMFVRKSQFRLPFKATTPVIMVGPGTGVAPFIGFIQERAWLRQQGKEVGETLLYYGCRRSDEDYLYREELAQFHRDGALTQLNVAFSREQSHKVYVQHLLKQDREHLWKLIEGGAHIYVCGDARNMARDVQNTFYDIVAELGAMEHAQAVDYIKKLMTKGRYSLDVWS
[1]
  μM of reduced MTT/min/mg of protein (Relative Rates): 1
CYP1A2
  pmoles of CYP1A2/mg of total protein (Relative Amounts): 1
CYP2D6
  pmoles of CYP2D6/mg of total protein (Relative Amounts): 1

B4: ΔN1hRD-HDEL: human P450 reductase lacking N-terminal 24 amino acids, with C-terminal yeast ER retention signal HDEL (protein)
chain: MTDMILFSLIVGLLTYWFLFRKKKEEVPEFTKIQTLTSSVRESSFVEKMKKTGRNIIVFYGSQTGTAEEFANRLSKDAHRYGMRGMSADPEEYDLADLSSLPEIDNALVVFCMATYGEGDPTDNAQDFYDWLQETDVDLSGVKFAVFGLGNKTYEHFNAMGKYVDKRLEQLGAQRIFELGLGDDDGNLEEDFITWREQFWPAVCEHFGVEATGEESSIRQYELVVHTDIDAAKVYMGEMGRLKSYENQKPPFDAKNPFLAAVTTNRKLNQGTERHLMHLELDISDSKIRYESGDHVAVYPANDSALVNQLGKILGADLDVVMSLNNLDEESNKKHPFPCPTSYRTALTYYLDITNPPRTNVLYELAQYASEPSEQELLRKMASSSGEGKELYLSWVVEARRHILAILQDCPSLRPPIDHLCELLPRLQARYYSIASSSKVHPNSVHICAVVVEYETKAGRINKGVATNWLRAKEPAGENGGRALVPMFVRKSQFRLPFKATTPVIMVGPGTGVAPFIGFIQERAWLRQQGKEVGETLLYYGCRRSDEDYLYREELAQFHRDGALTQLNVAFSREQSHKVYVQHLLKQDREHLWKLIEGGAHIYVCGDARNMARDVQNTFYDIVAELGAMEHAQAVDYIKKLMTKGRYSLDVWSHDEL
modifications: delN1hRD-HDEL
notes: human P450 reductase lacking N-terminal 24 amino acids, with C-terminal yeast ER retention signal HDEL
[1]
  μM of reduced MTT/min/mg of protein (Relative Rates): 3 ± 10%
CYP1A2
  pmoles of CYP1A2/mg of total protein (Relative Amounts): 6 ± 10%
CYP2D6
  pmoles of CYP2D6/mg of total protein (Relative Amounts): 6 ± 10%
